The supplement of paper PMC9112550, “Optimization of the antimicrobial peptide Bac7 by deep mutational scanning” (BMC Biology, 2022)

System: Escherichia coli TOP10
Experiment: shrunken log2 fold change of peptide-encoding DNA abundance (4.5 h post-induction vs induction); higher = less antimicrobial activity (less host growth inhibition)
Settings: time post-induction: 4.5 h; library: site-saturation at positions 5, 18, 19, 20
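Further: peptides expressed intracellularly from a pBAD plasmid library in pooled LB shake-flask culture, induced with 0.3% L-arabinose, DNA abundance read by NGS, three biological replicates, DESeq2 with apeglm shrinkage.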

Sequence: RRIRARPPRLPRPRPRPIYIPRP
- shrunken log2 fold change: 2.43

Sequence: RRIRARPPRLPRPRPRPIYQPRP
- shrunken log2 fold change: 0.0519

Sequence: RRIRARPPRLPRPRPRPKCEPRP
- shrunken log2 fold change: 0.367

Sequence: RRIRARPPRLPRPRPRPKCLPRP
- shrunken log2 fold change: 0.613

Sequence: RRIRARPPRLPRPRPRPKDYPRP
- shrunken log2 fold change: -0.248

Sequence: RRIRARPPRLPRPRPRPKEMPRP
- shrunken log2 fold change: 0.324

Sequence: RRIRARPPRLPRPRPRPKGCPRP
- shrunken log2 fold change: 1.4

Sequence: RRIRARPPRLPRPRPRPKIHPRP
- shrunken log2 fold change: -0.0619

Sequence: RRIRARPPRLPRPRPRPKKMPRP
- shrunken log2 fold change: -0.0239

Sequence: RRIRARPPRLPRPRPRPKLLPRP
- shrunken log2 fold change: 0.00678

Sequence: RRIRARPPRLPRPRPRPKLYPRP
- shrunken log2 fold change: 0.0318

Sequence: RRIRARPPRLPRPRPRPKNKPRP
- shrunken log2 fold change: 0.216

Sequence: RRIRARPPRLPRPRPRPKNMPRP
- shrunken log2 fold change: -0.191

Sequence: RRIRARPPRLPRPRPRPKNYPRP
- shrunken log2 fold change: -0.279

Sequence: RRIRARPPRLPRPRPRPKSEPRP
- shrunken log2 fold change: 1.22

Sequence: RRIRARPPRLPRPRPRPKTCPRP
- shrunken log2 fold change: 0.161

Sequence: RRIRARPPRLPRPRPRPKVYPRP
- shrunken log2 fold change: -0.0122

Sequence: RRIRARPPRLPRPRPRPKWPPRP
- shrunken log2 fold change: 0.751

Sequence: RRIRARPPRLPRPRPRPKYHPRP
- shrunken log2 fold change: -0.103

Sequence: RRIRARPPRLPRPRPRPLANPRP
- shrunken log2 fold change: 0.255

Sequence: RRIRARPPRLPRPRPRPLELPRP
- shrunken log2 fold change: 0.386

Sequence: RRIRARPPRLPRPRPRPLFGPRP
- shrunken log2 fold change: 0.235

Sequence: RRIRARPPRLPRPRPRPLFYPRP
- shrunken log2 fold change: -0.312

Sequence: RRIRARPPRLPRPRPRPLIVPRP
- shrunken log2 fold change: 0.287

Sequence: RRIRARPPRLPRPRPRPLIWPRP
- shrunken log2 fold change: 0.359

Sequence: RRIRARPPRLPRPRPRPLKPPRP
- shrunken log2 fold change: 0.464

Sequence: RRIRARPPRLPRPRPRPLLPPRP
- shrunken log2 fold change: 0.419

Sequence: RRIRARPPRLPRPRPRPLLYPRP
- shrunken log2 fold change: 0.09

Sequence: RRIRARPPRLPRPRPRPLMAPRP
- shrunken log2 fold change: 0.554

Sequence: RRIRARPPRLPRPRPRPLMCPRP
- shrunken log2 fold change: 0.0392

Sequence: RRIRARPPRLPRPRPRPLTFPRP
- shrunken log2 fold change: -0.203

Sequence: RRIRARPPRLPRPRPRPLVFPRP
- shrunken log2 fold change: 0.397

Sequence: RRIRARPPRLPRPRPRPLWCPRP
- shrunken log2 fold change: -0.264

Sequence: RRIRARPPRLPRPRPRPLWHPRP
- shrunken log2 fold change: 0.108

Sequence: RRIRARPPRLPRPRPRPLWKPRP
- shrunken log2 fold change: 0.121

Sequence: RRIRARPPRLPRPRPRPLYQPRP
- shrunken log2 fold change: 0.141

Sequence: RRIRARPPRLPRPRPRPLYRPRP
- shrunken log2 fold change: -0.28

Sequence: RRIRARPPRLPRPRPRPMAEPRP
- shrunken log2 fold change: 0.238

Sequence: RRIRARPPRLPRPRPRPMAFPRP
- shrunken log2 fold change: 0.0104

Sequence: RRIRARPPRLPRPRPRPMAQPRP
- shrunken log2 fold change: 0.23

Sequence: RRIRARPPRLPRPRPRPMCHPRP
- shrunken log2 fold change: 0.294

Sequence: RRIRARPPRLPRPRPRPMDIPRP
- shrunken log2 fold change: 0.142

Sequence: RRIRARPPRLPRPRPRPMDSPRP
- shrunken log2 fold change: -0.104

Sequence: RRIRARPPRLPRPRPRPMFEPRP
- shrunken log2 fold change: 0.3

Sequence: RRIRARPPRLPRPRPRPMFMPRP
- shrunken log2 fold change: 0.749

Sequence: RRIRARPPRLPRPRPRPMGHPRP
- shrunken log2 fold change: 0.062

Sequence: RRIRARPPRLPRPRPRPMHLPRP
- shrunken log2 fold change: -0.00822

Sequence: RRIRARPPRLPRPRPRPMIIPRP
- shrunken log2 fold change: -0.0301

Sequence: RRIRARPPRLPRPRPRPMIMPRP
- shrunken log2 fold change: -0.0807

Sequence: RRIRARPPRLPRPRPRPMINPRP
- shrunken log2 fold change: -0.0176

Sequence: RRIRARPPRLPRPRPRPMKDPRP
- shrunken log2 fold change: 0.0565

Sequence: RRIRARPPRLPRPRPRPMLIPRP
- shrunken log2 fold change: 0.0528

Sequence: RRIRARPPRLPRPRPRPMLSPRP
- shrunken log2 fold change: 0.133

Sequence: RRIRARPPRLPRPRPRPMLTPRP
- shrunken log2 fold change: 0.466

Sequence: RRIRARPPRLPRPRPRPMMQPRP
- shrunken log2 fold change: 0.185

Sequence: RRIRARPPRLPRPRPRPMNYPRP
- shrunken log2 fold change: -0.182

Sequence: RRIRARPPRLPRPRPRPMPIPRP
- shrunken log2 fold change: 0.708

Sequence: RRIRARPPRLPRPRPRPMPPPRP
- shrunken log2 fold change: 0.3

Sequence: RRIRARPPRLPRPRPRPMPWPRP
- shrunken log2 fold change: 0.483

Sequence: RRIRARPPRLPRPRPRPMPYPRP
- shrunken log2 fold change: -0.105

Sequence: RRIRARPPRLPRPRPRPMQAPRP
- shrunken log2 fold change: -0.00917

Sequence: RRIRARPPRLPRPRPRPMQGPRP
- shrunken log2 fold change: 0.601

Sequence: RRIRARPPRLPRPRPRPMQPPRP
- shrunken log2 fold change: 0.369

Sequence: RRIRARPPRLPRPRPRPMQYPRP
- shrunken log2 fold change: 0.00958

Sequence: RRIRARPPRLPRPRPRPMRDPRP
- shrunken log2 fold change: 1.04

Sequence: RRIRARPPRLPRPRPRPMRSPRP
- shrunken log2 fold change: 0.0669

Sequence: RRIRARPPRLPRPRPRPMVCPRP
- shrunken log2 fold change: 0.396

Sequence: RRIRARPPRLPRPRPRPMVEPRP
- shrunken log2 fold change: 0.0234

Sequence: RRIRARPPRLPRPRPRPMWRPRP
- shrunken log2 fold change: 0.248

Sequence: RRIRARPPRLPRPRPRPMYIPRP
- shrunken log2 fold change: -0.345

Sequence: RRIRARPPRLPRPRPRPMYQPRP
- shrunken log2 fold change: -0.21

Sequence: RRIRARPPRLPRPRPRPNCHPRP
- shrunken log2 fold change: -0.0678

Sequence: RRIRARPPRLPRPRPRPNFCPRP
- shrunken log2 fold change: 0.24

Sequence: RRIRARPPRLPRPRPRPNFKPRP
- shrunken log2 fold change: 0.0298

Sequence: RRIRARPPRLPRPRPRPNFPPRP
- shrunken log2 fold change: -0.0362

Sequence: RRIRARPPRLPRPRPRPNFSPRP
- shrunken log2 fold change: -0.0677

Sequence: RRIRARPPRLPRPRPRPNHCPRP
- shrunken log2 fold change: 0.956

Sequence: RRIRARPPRLPRPRPRPNHYPRP
- shrunken log2 fold change: -0.456

Sequence: RRIRARPPRLPRPRPRPNIRPRP
- shrunken log2 fold change: -0.289

Sequence: RRIRARPPRLPRPRPRPNLCPRP
- shrunken log2 fold change: 0.0317

Sequence: RRIRARPPRLPRPRPRPNMCPRP
- shrunken log2 fold change: -0.339

Sequence: RRIRARPPRLPRPRPRPNMRPRP
- shrunken log2 fold change: 0.25

Sequence: RRIRARPPRLPRPRPRPNNCPRP
- shrunken log2 fold change: -0.466

Sequence: RRIRARPPRLPRPRPRPNNLPRP
- shrunken log2 fold change: -0.561

Sequence: RRIRARPPRLPRPRPRPNPAPRP
- shrunken log2 fold change: 0.796

Sequence: RRIRARPPRLPRPRPRPNPHPRP
- shrunken log2 fold change: 0.0863

Sequence: RRIRARPPRLPRPRPRPNPLPRP
- shrunken log2 fold change: 0.32

Sequence: RRIRARPPRLPRPRPRPNQKPRP
- shrunken log2 fold change: 0.0427

Sequence: RRIRARPPRLPRPRPRPNQNPRP
- shrunken log2 fold change: 0.0844

Sequence: RRIRARPPRLPRPRPRPNTVPRP
- shrunken log2 fold change: 0.0514

Sequence: RRIRARPPRLPRPRPRPNVKPRP
- shrunken log2 fold change: -0.167

Sequence: RRIRARPPRLPRPRPRPNWMPRP
- shrunken log2 fold change: 0.0981

Sequence: RRIRARPPRLPRPRPRPNYKPRP
- shrunken log2 fold change: -0.345

Sequence: RRIRARPPRLPRPRPRPNYSPRP
- shrunken log2 fold change: -0.502

Sequence: RRIRARPPRLPRPRPRPPADPRP
- shrunken log2 fold change: 1.42

Sequence: RRIRARPPRLPRPRPRPPAYPRP
- shrunken log2 fold change: 0.3

Sequence: RRIRARPPRLPRPRPRPPCDPRP
- shrunken log2 fold change: 0.506

Sequence: RRIRARPPRLPRPRPRPPCQPRP
- shrunken log2 fold change: 0.438

Sequence: RRIRARPPRLPRPRPRPPFTPRP
- shrunken log2 fold change: 0.3

Sequence: RRIRARPPRLPRPRPRPPHRPRP
- shrunken log2 fold change: 0.931

Sequence: RRIRARPPRLPRPRPRPPHTPRP
- shrunken log2 fold change: 0.739

Sequence: RRIRARPPRLPRPRPRPPILPRP
- shrunken log2 fold change: -0.261

Sequence: RRIRARPPRLPRPRPRPPIMPRP
- shrunken log2 fold change: 0.0549

Sequence: RRIRARPPRLPRPRPRPPKMPRP
- shrunken log2 fold change: 0.298

Sequence: RRIRARPPRLPRPRPRPPKNPRP
- shrunken log2 fold change: 0.562

Sequence: RRIRARPPRLPRPRPRPPMGPRP
- shrunken log2 fold change: 0.358

Sequence: RRIRARPPRLPRPRPRPPMKPRP
- shrunken log2 fold change: 0.303

Sequence: RRIRARPPRLPRPRPRPPMLPRP
- shrunken log2 fold change: 0.805

Sequence: RRIRARPPRLPRPRPRPPNCPRP
- shrunken log2 fold change: 0.354

Sequence: RRIRARPPRLPRPRPRPPNMPRP
- shrunken log2 fold change: -0.0722

Sequence: RRIRARPPRLPRPRPRPPNQPRP
- shrunken log2 fold change: 0.691

Sequence: RRIRARPPRLPRPRPRPPPCPRP
- shrunken log2 fold change: 0.979

Sequence: RRIRARPPRLPRPRPRPPQGPRP
- shrunken log2 fold change: 0.689

Sequence: RRIRARPPRLPRPRPRPPRYPRP
- shrunken log2 fold change: 0.896

Sequence: RRIRARPPRLPRPRPRPPSAPRP
- shrunken log2 fold change: 0.827

Sequence: RRIRARPPRLPRPRPRPPSRPRP
- shrunken log2 fold change: 0.691

Sequence: RRIRARPPRLPRPRPRPPTIPRP
- shrunken log2 fold change: 0.0349

Sequence: RRIRARPPRLPRPRPRPPWFPRP
- shrunken log2 fold change: 0.36

Sequence: RRIRARPPRLPRPRPRPPYDPRP
- shrunken log2 fold change: 0.0295

Sequence: RRIRARPPRLPRPRPRPQATPRP
- shrunken log2 fold change: 0.389

Sequence: RRIRARPPRLPRPRPRPQDKPRP
- shrunken log2 fold change: -0.132

Sequence: RRIRARPPRLPRPRPRPQDMPRP
- shrunken log2 fold change: -0.322

Sequence: RRIRARPPRLPRPRPRPQDYPRP
- shrunken log2 fold change: -0.159

Sequence: RRIRARPPRLPRPRPRPQFPPRP
- shrunken log2 fold change: 0.0321

Sequence: RRIRARPPRLPRPRPRPQFRPRP
- shrunken log2 fold change: -0.123

Sequence: RRIRARPPRLPRPRPRPQFYPRP
- shrunken log2 fold change: -0.183

Sequence: RRIRARPPRLPRPRPRPQGNPRP
- shrunken log2 fold change: -0.144

Sequence: RRIRARPPRLPRPRPRPQIAPRP
- shrunken log2 fold change: 0.499

Sequence: RRIRARPPRLPRPRPRPQIHPRP
- shrunken log2 fold change: -0.0277

Sequence: RRIRARPPRLPRPRPRPQIRPRP
- shrunken log2 fold change: 0.0717

Sequence: RRIRARPPRLPRPRPRPQLAPRP
- shrunken log2 fold change: 0.766

Sequence: RRIRARPPRLPRPRPRPQMDPRP
- shrunken log2 fold change: 0.099

Sequence: RRIRARPPRLPRPRPRPQNDPRP
- shrunken log2 fold change: 5.63e-05

Sequence: RRIRARPPRLPRPRPRPQNKPRP
- shrunken log2 fold change: -0.232

Sequence: RRIRARPPRLPRPRPRPQNSPRP
- shrunken log2 fold change: -0.23

Sequence: RRIRARPPRLPRPRPRPQQDPRP
- shrunken log2 fold change: 0.108

Sequence: RRIRARPPRLPRPRPRPQRHPRP
- shrunken log2 fold change: 0.212

Sequence: RRIRARPPRLPRPRPRPQSPPRP
- shrunken log2 fold change: -0.0671

Sequence: RRIRARPPRLPRPRPRPQSSPRP
- shrunken log2 fold change: -0.0298

Sequence: RRIRARPPRLPRPRPRPQSYPRP
- shrunken log2 fold change: -0.118

Sequence: RRIRARPPRLPRPRPRPQTFPRP
- shrunken log2 fold change: -0.528

Sequence: RRIRARPPRLPRPRPRPQTTPRP
- shrunken log2 fold change: 0.768

Sequence: RRIRARPPRLPRPRPRPQWTPRP
- shrunken log2 fold change: 0.164

Sequence: RRIRARPPRLPRPRPRPQYCPRP
- shrunken log2 fold change: -0.0903

Sequence: RRIRARPPRLPRPRPRPRAKPRP
- shrunken log2 fold change: 0.868

Sequence: RRIRARPPRLPRPRPRPRAQPRP
- shrunken log2 fold change: 0.465

Sequence: RRIRARPPRLPRPRPRPRCNPRP
- shrunken log2 fold change: 0.197

Sequence: RRIRARPPRLPRPRPRPRCPPRP
- shrunken log2 fold change: 0.248

Sequence: RRIRARPPRLPRPRPRPRCRPRP
- shrunken log2 fold change: 0.427

Sequence: RRIRARPPRLPRPRPRPRDKPRP
- shrunken log2 fold change: 0.442
